Read-outs that look alike come from different tables or passages of the source. Ends that are not written are not given here.

Data set [1] concerns the target T1, human LGR7/RXFP1 receptor (Homo sapiens, UniProt Q9HBX9).
T1 construct: cloned as 2271 base pair long DNA fragment; expressed in transfected cells; host or cells: CHO K1 (ATCC CCL-61) with CRE-luciferase reporter; receptor in pcDNA3.1(-)
T1 sequence (Q9HBX9 1-757): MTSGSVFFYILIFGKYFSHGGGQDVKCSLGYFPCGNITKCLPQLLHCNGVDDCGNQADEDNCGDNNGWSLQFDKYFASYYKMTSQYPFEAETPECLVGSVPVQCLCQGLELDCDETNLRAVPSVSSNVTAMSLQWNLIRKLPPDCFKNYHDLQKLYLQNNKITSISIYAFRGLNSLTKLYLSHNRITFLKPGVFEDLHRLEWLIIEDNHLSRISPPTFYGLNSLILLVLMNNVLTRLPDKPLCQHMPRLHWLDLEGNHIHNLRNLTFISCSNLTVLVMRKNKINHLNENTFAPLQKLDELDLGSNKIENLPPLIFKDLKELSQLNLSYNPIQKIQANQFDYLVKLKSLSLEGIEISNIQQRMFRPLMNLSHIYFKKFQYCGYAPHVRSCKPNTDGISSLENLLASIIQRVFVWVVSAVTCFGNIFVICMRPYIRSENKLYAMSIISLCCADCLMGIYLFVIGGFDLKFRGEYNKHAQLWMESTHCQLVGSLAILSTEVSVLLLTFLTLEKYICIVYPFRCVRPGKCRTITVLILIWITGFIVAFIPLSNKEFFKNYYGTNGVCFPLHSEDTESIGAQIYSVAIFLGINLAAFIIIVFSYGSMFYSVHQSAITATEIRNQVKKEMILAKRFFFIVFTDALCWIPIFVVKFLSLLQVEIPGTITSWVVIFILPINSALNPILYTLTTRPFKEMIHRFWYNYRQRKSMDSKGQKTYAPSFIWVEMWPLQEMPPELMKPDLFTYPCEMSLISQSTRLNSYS
The data set is described as follows: Activity testing: CRE-luciferase reporter in CHO-CRE-LGR7 cell line. Format: cell-based. The conditions noted are these: for EC50 (M): luciferase after 6 hours, examples of three to five independent experiments. As for the experimental part: For stimulation, medium was exchanged by OptiMem (Gibco, #11058)+1% FCS containing different concentrations of the recombinantly expressed Relaxin variant proteins (usually starting at a concentration of 100 nM, followed by 1:2 dilutions). As positive control, commercially available recombinant expressed human Relaxin 2 (Genbank Accession number NP_604390.1) was used (R&D Systems, catalogue number 6586-RN-025). Subsequently, cells were incubated for 6 hours in a humified incubator at 5% carbon dioxide at 37° C. After 6 hours cells were tested for Luciferase activity using a Luciferase Assay System (Promega, # E1500) and using the Tecan Infinite 500 reader, luminescence mode, 1000 milliseconds integration time, measurement time 30 seconds.
(In general: In a reporter assay the amount or activity of a reporter protein is the signal.)

For data set [2] the following is noted: intravenously administrated, humans (Dschietzig T. et al. (2009)); cited from earlier work.
A short description of data set [3]: In vivo plasma stability: serum levels by quantification ELISA after intravenous administration. The settings on record: male Wistar rats, 240 μg/kg intravenously, three days after application. (In general: In an ELISA, binding on a coated surface is turned into a signal by an enzyme label.)
Experimental: Blood samples were collected at the indicated time points after application and serum levels of each protein were measured by using a quantification ELISA.
At time points 0 hour, 1 hour, 3 days, 5 days, and 7 days after compound administration, blood samples were taken and the concentrations of the Fc-single chain Relaxin and non-modified hRelaxin2 were determined using the commercially available quantification ELISA (R&D Systems, Human Relaxin-2 Quantikine ELISA Kit, catalogue number DRL200).
The subject of data set [4] is isolated perfused rat heart. In words: Isolated perfused rat heart (Langendorff). Set-up: species or system Wistar rats. As for the experimental part:
Male Wistar rats (200-250 g) were anesthetized using Narcoren (100 mg/kg i.p.). The heart was rapidly excised and connected to a Langendorff perfusion system (FMI GmbH, Seeheim-Ober Beerbach, Germany). The heart was perfused at a constant rate of 10 ml/min with Krebs-Henseleit bicarbonate buffer solution equilibrated with 95% O2-5% CO2. The perfusion solution contained (in mmol/l): NaCl 118; KCl 3; NaHCO3 22; KH2PO41,2; MgSO4 1,2; CaCl2 1,8; Glucose 10; Na-Pyruvat 2. A pressure transducer registered the perfusion pressure in the perfusion system. The left ventricular pressure (LVP) was measured using a second pressure transducer connected to a water-filled balloon which was inserted into the left ventricle via the left atrium. The end diastolic pressure was initially set to 8 mm Hg by adjusting the volume of the balloon. The hearts were spontaneously beating. The signals from the pressure transducer were amplified, registered and used for the calculation of the heart frequency and +dp/dt by a personal computer.

Setting [5] is: Table 2, scR fusion protein constructs.

For the molecule “Relaxin Fc: human Relaxin 2 (B chain-C chain-A chain) fused via IleGluGlyArgMetAsp to N terminal end of human IgG1 Fc”, the “biological activity (activation of LGR7), in words” value (from here on “biological activity”) in data set [1] is “no activity”; in data set [1] (listed as human wildtype Relaxin 2 molecule with its orientation B chain-C chain-A chain f) it was “does not show any detectable activity”. Also, the “EC50 (M)” value in data set [1] (setting [5]) is “not detectable”.
In the case of “hRelaxin 2: commercially available recombinant expressed human Relaxin 2 (R&D Systems, catalogue number 6586-RN-025), positive control (alpha QLYSALANKCCHVGCTKRSLARFC; beta SWMEEVIKLCGRELVRAQIAICGMSTWS; listed as Homo Sapiens)”, the half-life result in data set [2] is recorded as “less than 10 minutes”. Also, the “serum concentration (ELISA)” value in data set [3] was “undetectable”. Further, in data set [4] (concentration of 1 nM), the “contractility (inotropic activity)” value is “negative inotrophic activity”, the coronary flow entry is recorded as “increase” and the heart rate result is given as “increase”. In addition, the “potency relative to scR-Fc 13” value in data set [4] (isolated perfused rat heart) is “ten fold more potent”. In addition, in data set [4] (perfusion, FIG. 11), the coronary flow entry is reported as “significant increase”, the heart rate entry is given as “significant increase”, the “left ventricular diastolic pressure” value is “decrease” and the “left ventricular pressure (+dp/dtmax)” value is “decrease”.
Consider “scR14: single chain human Relaxin 3 A-L-B, linker GlyGlyGlySerGlyGlyGlySerGly; non-purified; SEQ ID NO: 14 (DVLAGLSSSCCKWGCSKSEISSLCGGGSGGGSGRAAPYGVRLCGREFIRAVIFTCGGSRW; ends and bridges not checked; cysteine pairing not given here)”, for which the “biological activity” value in data set [1] is on record as “detectable biological activity”.
Turning to “scR-Var7: single chain human Relaxin 2, linker LysArgSerLeuSerArgLysLysArg; B chain C terminus linked via IleGluGlyArgMetAsp to human IgG1 Fc; SEQ ID NO: 40”, the “EC50 (M)” value in data set [1] (setting [5]) is given as “active (EC50 n.d.)”.
Still for that read-out and setting: the result for “scR-Var8: human IgG1 Fc linked via IleGluGlyArgMetAsp to A chain N terminus; A-B linker LysArgSerLeuSerArgLysLysArg; SEQ ID NO: 41” reads “active (EC50 n.d.)”.

B1: scR13: single chain human Relaxin 2 A-L-B, linker LysArgSerLeuSerArgLysLysArg; non-purified; SEQ ID NO: 13 (protein)
chain: QLYSALANKCCHVGCTKRSLARFCKRSLSRKKRSWMEEVIKLCGRELVRAQIAICGMSTWS
modifications: ends and bridges not checked
In the case of B1, the “biological activity” value in data set [1] is “lower activity”. Also, the “EC50 (M)” value in data set [1] (Table 1, scR constructs) was “active (EC50 n.d.)”.

B2: scR6: single chain human Relaxin 2 A-L-B, fifteen amino acid linker SEQ ID NO: 173; Myc, hemagglutinin, 6 Histidine tags; SEQ ID NO: 6 (protein)
chain: EQKLISEEDLQLYSALANKCCHVGCTKRSLARFCGGGSGGGSGGGSGGGSWMEEVIKLCGRELVRAQIAICGMSTWSYPYDVPDYAHHHHHH
With B2, the “EC50 (M)” value in data set [1] (Table 1, scR constructs) is “not detectable”.

B3: scR1: single chain human Relaxin 2 A-L-B, linker GlyGlyGly; Myc, hemagglutinin and 6 Histidine tags; SEQ ID NO: 1 (protein)
chain: EQKLISEEDLQLYSALANKCCHVGCTKRSLARFCGGGSWMEEVIKLCGRELVRAQIAICGMSTWSYPYDVPDYAHHHHHH
For B3, the “EC50 (M)” value in data set [1] (Table 1, scR constructs) was “not detectable”.

B4: scR2: single chain human Relaxin 2 A-L-B, linker GlyGlyGlySerGly; Myc, hemagglutinin and 6 Histidine tags; SEQ ID NO: 2 (protein)
chain: EQKLISEEDLQLYSALANKCCHVGCTKRSLARFCGGGSGSWMEEVIKLCGRELVRAQIAICGMSTWSYPYDVPDYAHHHHHH
Take B4: the “EC50 (M)” value in data set [1] (Table 1, scR constructs) is listed as “not detectable”.

B5: scR19: A chain of human Relaxin 2-linker SEQ ID NO: 139-B chain of human Relaxin 3; Myc tag; SEQ ID NO: 155 (protein)
chain: EQKLISEEDLQLYSALANKCCHVGCTKRSLARFCGGGSGGGSGRAAPYGVRLCGREFIRAVIFTCGGSRW
modifications: ends and bridges not checked
In the case of B5, in data set [1], the “biological activity” value was “further reduction in the activity”. In data set [1] (Table 1, scR constructs), the “EC50 (M)” value is “active (EC50 n.d.)”.

B6: scR16: human Relaxin 2 B chain-linker GlyGlyGlySerGlyGlyGlySerGly-A chain; Myc tag; SEQ ID NO: 152 (protein)
chain: EQKLISEEDLSWMEEVIKLCGRELVRAQIAICGMSTWSGGGSGGGSGQLYSALANKCCHVGCTKRSLARFC
B6: the “EC50 (M)” value in data set [1] (Table 1, scR constructs) was “not detectable”.

B7: scR20: B chain of human Relaxin 3-linker SEQ ID NO: 139-A chain of human Relaxin 2; Myc tag; SEQ ID NO: 156 (protein)
chain: EQKLISEEDLRAAPYGVRLCGREFIRAVIFTCGGSRWGGGSGGGSGQLYSALANKCCHVGCTKRSLARFC
modifications: ends and bridges not checked
As for B7, the “EC50 (M)” value in data set [1] (Table 1, scR constructs) is “not detectable”.

B8: scR15: single chain human Relaxin 3 A-L-B, linker GlyGlyGlySerGlyGlyGlySerGly; Myc tag; SEQ ID NO: 15 (protein)
chain: EQKLISEEDLDVLAGLSSSCCKWGCSKSEISSLCGGGSGGGSGRAAPYGVRLCGREFIRAVIFTCGGSRW
modifications: ends and bridges not checked
Turning to B8, the “biological activity” value in data set [1] is “detectable biological activity”.

B9: scR-Fc 18: C terminal end of scR4 linked via 21 amino acid linker SEQ ID NO: 174 to human IgG1 Fc; SEQ ID NO: 33 (protein)
chain: QLYSALANKCCHVGCTKRSLARFCGGGSGGGSGSWMEEVIKLCGRELVRAQIAICGMSTWSGGGSGGGSGTLVTVSSESKYGPPCPPCPAPEAAAPELLGGPSVFLFPPKPKDTLMISRTPEVTCVVVDVSHEDPEVKFNWYVDGVEVHNAKTKPREEQYNSTYRVVSVLTVLHQDWLNGKEYKCKVSNKALPAPIEKTISKAKGQPREPQVYTLPPSRDELTKNQVSLTCLVKGFYPSDIAVEWESNGQPENNYKTTPPVLDSDGSFFLYSKLTVDKSRWQQGNVFSCSVMHEALHNHYTQKSLSLSPGK
modifications: relaxin fusion polypeptide
As to B9, the “EC50 (M)” value in data set [1] (setting [5]) is listed as “active (EC50 n.d.)”.

B10: scR18: B chain of human Relaxin 2-linker SEQ ID NO: 139-A chain of human Relaxin 3; Myc tag; SEQ ID NO: 154 (protein)
chain: EQKLISEEDLSWMEEVIKLCGRELVRAQIAICGMSTWSGGGSGGGSGDVLAGLSSSCCKWGCSKSEISSLC
modifications: relaxin fusion polypeptide
In the case of B10, the “EC50 (M)” value in data set [1] (Table 1, scR constructs) is “not detectable”.

B11: scR17: A chain of human Relaxin 3-linker SEQ ID NO: 139-B chain of human Relaxin 2; Myc tag; SEQ ID NO: 153 (protein)
chain: EQKLISEEDLDVLAGLSSSCCKWGCSKSEISSLCGGGSGGGSGSWMEEVIKLCGRELVRAQIAICGMSTWS
modifications: relaxin fusion polypeptide
Regarding B11, the “biological activity” value in data set [1] is recorded as “reduced activity”.
